Data reported in paper doi:10.1101/2022.09.16.508221 (bioRxiv, 2022).
Values joined by “and” are separate entries in the source; they are usually repeats but may differ in a detail not shown here. Identical values can stand only once.

Assays:
SEC = molecular target: the molecule itself; assay: SEC
mass photometry = molecular target: the molecule itself; assay: mass photometry

B1: Hermes transposase (full-length, with the mutations Q2E and K128G) (enzyme, Musca domestica, UniProt Q25438 1-612, looked up)
chain: MEKMDNLEVKAKINQGLYKITPRHKGTSFIWNVLADIQKEDDTLVEGWVFCRKCEKVLKYTTRQTSNLCRHKCCASLKQSRELKTVSADCKKEAIEKCAQWVVRDCRPFSAVSGSGFIDMIKFFIKVGAEYGEHVNVEELLPSPITLSRKVTSDAKEKKALISREIKSAVEKDGASATIDLWTDNYIKRNFLGVTLHYHENNELRDLILGLKSLDFERSTAENIYKKLKAIFSQFNVEDLSSIKFVTDRGANVVKSLANNIRINCSSHLLSNVLENSFEETPELNMPILACKNIVKYFKKANLQHRLRSSLKSECPTRWNSTYTMLRSILDNWESVIQILSEAGETQRIVHINKSIIQTMVNILDGFERIFKELQTCSSPSLCFVVPSILKVKEICSPDVGDVADIAKLKVNIIKNVRIIWEENLSIWHYTAFFFYPPALHMQQEKVAQIKEFCLSKMEDLELINRMSSFNELSATQLNQSDSNSHNSIDLTSHSKDISTTSFFFPQLTQNNSREPPVCPSDEFEFYRKEIVILSEDFKVMEWWNLNSKKYPKLSKLALSLLSIPASSAASERTFSLAGNIITEKRNRIGQQTVDSLLFLNSFYKNFCKLDI
SEC
  stoichiometry N: 8 and 6
Mass photometry
  stoichiometry N: 2
